In the supplement of paper PMC5998384:

Assays:
[1] = test system: HeLa Kyoto; assay: thermal stability score vs G1/S (z-score of summed log2 fold changes over temperatures); higher = more thermally stable than in G1/S
[2] = test system: HeLa Kyoto; assay: solubility change mitosis vs G1/S (difference of NP-40 vs SDS log2 ratios) (log2 ratio difference); higher = more soluble in mitosis
[3] = test system: HeLa Kyoto; assay: solubility in G1/S (NP-40 vs SDS abundance) (log2 ratio); higher = more soluble; conditions: cell cycle stage: G1/S
[4] = test system: HeLa Kyoto; assay: melting temperature (median over replicates), in situ; higher = more thermally stable
[5] = cell cycle stage: early G1 (4.5 h after nocodazole release)
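Throughout, for melting temperature (median over replicates), in situ: HeLa Kyoto cells synchronized by double thymidine or nocodazole block, proteins quantified by TMT10plex mass spectrometry, three independent biological replicates.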
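Throughout, for solubility change mitosis vs G1/S (difference of NP-40 vs SDS log2 ratios): synchronized HeLa Kyoto cells (double thymidine block for G1/S, nocodazole release for mitosis), protein amounts in NP-40 versus SDS lysates quantified by mass spectrometry, three biological replicates.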
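Throughout, for solubility in G1/S (NP-40 vs SDS abundance): HeLa Kyoto cells arrested at G1/S by double thymidine block, proteins quantified by TMT10plex mass spectrometry in mild NP-40 versus SDS extracts, three biological replicates.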
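Throughout, for thermal stability score vs G1/S (z-score of summed log2 fold changes over temperatures): synchronized HeLa Kyoto cells, proteins quantified by TMT10plex mass spectrometry, three biological replicates, mitosis taken 0.5 h after nocodazole release, G1/S directly after double thymidine block.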

Sequence	thermal stability score [1, 5]	thermal stability score ([1]; cell cycle stage: mitosis)	solubility change mitosis (log2) [2]	solubility in G1/S (log2) [3]	melting temperature ([4]; cell cycle stage: G1/S) [°C]	melting temperature ([4]; cell cycle stage: mitosis) [°C]
MAKVSELYDVTWEEMRDKMRKWREENSRNSEQIVEVGEELINEYASKLGDDIWIIYEQVMIAALDYGRDDLALFCLQELRRQFPGSHRVKRLTGMRFEAMERYDDAIQLYDRILQEDPTNTAARKRKIAIRKAQGKNVEAIRELNEYLEQFVGDQEAWHELAELYINEHDYAKAAFCLEELMMTNPHNHLYCQQYAEVKYTQGGLENLELSRKYFAQALKLNNRNMRALFGLYMSASHIASNPKASAKTKKDNMKYASWAASQINRAYQFAGRSKKETKYSLKAVEDMLETLQITQS [EMC2]	-1.21	-1.88	0.0699	0.188	53.8	53.9
MALFAVFQTTFFLTLLSLRTYQSEVLAERLPLTPVSLKVSTNSTRQSLHLQWTVHNLPYHQELKMVFQIQISRIETSNVIWVGNYSTTVKWNQVLHWSWESELPLECATHFVRIKSLVDDAKFPEPNFWSNWSSWEEVSVQDSTGQDILFVFPKDKLVEEGTNVTICYVSRNIQNNVSCYLEGKQIHGEQLDPHVTAFNLNSVPFIRNKGTNIYCEASQGNVSEGMKGIVLFVSKVLEEPKDFSCETEDFKTLHCTWDPGTDTALGWSKQPSQSYTLFESFSGEKKLCTHKNWCNWQITQDSQETYNFTLIAENYLRKRSVNILFNLTHRVYLMNPFSVNFENVNATNAIMTWKVHSIRNNFTYLCQIELHGEGKMMQYNVSIKVNGEYFLSELEPATEYMARVRCADASHFWKWSEWSGQNFTTLEAAPSEAPDVWRIVSLEPGNHTVTLFWKPLSKLHANGKILFYNVVVENLDKPSSSELHSIPAPANSTKLILDRCSYQICVIANNSVGASPASVIVISADPENKEVEEERIAGTEGGFSLSWKPQPGDVIGYVVDWCDHTQDVLGDFQWKNVGPNTTSTVISTDAFRPGVRYDFRIYGLSTKRIACLLEKKTGYSQELAPSDNPHVLVDTLTSHSFTLSWKDYSTESQPGFIQGYHVYLKSKARQCHPRFEKAVLSDGSECCKYKIDNPEEKALIVDNLKPESFYEFFITPFTSAGEGPSATFTKVTTPDEHSSMLIHILLPMVFCVLLIMVMCYLKSQWIKETCYPDIPDPYKSSILSLIKFKENPHLIIMNVSDCIPDAIEVVSKPEGTKIQFLGTRKSLTETELTKPNYLYLLPTEKNHSGPGPCICFENLTYNQAASDSGSCGHVPVSPKAPSMLGLMTSPENVLKALEKNYMNSLGEIPAGETSLNYVSQLASPMFGDKDSLPTNPVEAPHCSEYKMQMAVSLRLALPPPTENSSLSSITLLDPGEHYC [OSMR]	0.598	-0.083	-0.0968	-0.0468	50.9	51.1
MALHVPKAPGFAQMLKEGAKHFSGLEEAVYRNIQACKELAQTTRTAYGPNGMNKMVINHLEKLFVTNDAATILRELEVQHPAAKMIVMASHMQEQEVGDGTNFVLVFAGALLELAEELLRIGLSVSEVIEGYEIACRKAHEILPNLVCCSAKNLRDIDEVSSLLRTSIMSKQYGNEVFLAKLIAQACVSIFPDSGHFNVDNIRVCKILGSGISSSSVLHGMVFKKETEGDVTSVKDAKIAVYSCPFDGMITETKGTVLIKTAEELMNFSKGEENLMDAQVKAIADTGANVVVTGGKVADMALHYANKYNIMLVRLNSKWDLRRLCKTVGATALPRLTPPVLEEMGHCDSVYLSEVGDTQVVVFKHEKEDGAISTIVLRGSTDNLMDDIERAVDDGVNTFKVLTRDKRLVPGGGATEIELAKQITSYGETCPGLEQYAIKKFAEAFEAIPRALAENSGVKANEVISKLYAVHQEGNKNVGLDIEAEVPAVKDMLEAGILDTYLGKYWAIKLATNAAVTVLRVDQIIMAKPAGGPKPPSGKKDWDDDQND [CCT8]	-0.228	-1.4	-0.0769	0.0969	54.2	53.9
MALKVATVAGSAAKAVLGPALLCRPWEVLGAHEVPSRNIFSEQTIPPSAKYGGRHTVTMIPGDGIGPELMLHVKSVFRHACVPVDFEEVHVSSNADEEDIRNAIMAIRRNRVALKGNIETNHNLPPSHKSRNNILRTSLDLYANVIHCKSLPGVVTRHKDIDILIVRENTEGEYSSLEHESVAGVVESLKIITKAKSLRIAEYAFKLAQESGRKKVTAVHKANIMKLGDGLFLQCCREVAARYPQITFENMIVDNTTMQLVSRPQQFDVMVMPNLYGNIVNNVCAGLVGGPGLVAGANYGHVYAVFETATRNTGKSIANKNIANPTATLLASCMMLDHLKLHSYATSIRKAVLASMDNENMHTPDIGGQGTTSEAIQDVIRHIRVINGRAVEA [IDH3G]	-0.804	-0.821	-0.0967	0.253	54.5	54
MALLFARSLRLCRWGAKRLGVASTEAQRGVSFKLEEKTAHSSLALFRDDTGVKYGLVGLEPTKVALNVERFREWAVVLADTAVTSGRHYWEVTVKRSQQFRIGVADVDMSRDSCIGVDDRSWVFTYAQRKWYTMLANEKAPVEGIGQPEKVGLLLEYEAQKLSLVDVSQVSVVHTLQTDFRGPVVPAFALWDGELLTHSGLEVPEGL [SPRYD4]	-1.47	-3.25	-0.14	-0.0415	53.9	54.8
MALLTAAARLLGTKNASCLVLAARHASASSTNLKDILADLIPKEQARIKTFRQQHGKTVVGQITVDMMYGGMRGMKGLVYETSVLDPDEGIRFRGFSIPECQKLLPKAKGGEEPLPEGLFWLLVTGHIPTEEQVSWLSKEWAKRAALPSHVVTMLDNFPTNLHPMSQLSAAVTALNSESNFARAYAQGISRTKYWELIYEDSMDLIAKLPCVAAKIYRNLYREGSGIGAIDSNLDWSHNFTNMLGYTDHQFTELTRLYLTIHSDHEGGNVSAHTSHLVGSALSDPYLSFAAAMNGLAGPLHGLANQEVLVWLTQLQKEVGKDVSDEKLRDYIWNTLNSGRVVPGYGHAVLRKTDPRYTCQREFALKHLPNDPMFKLVAQLYKIVPNVLLEQGKAKNPWPNVDAHSGVLLQYYGMTEMNYYTVLFGVSRALGVLAQLIWSRALGFPLERPKSMSTEGLMKFVDSKSG [CS]	1.01	0.1	-0.0123	0.519	52	51.9
